Laboratory results: US20170340735A1 (published 2017)
Residue numbers refer to the chain shown, from its start.

T1: human TIGIT on the cell surface (human, UniProt Q495A1 22-244)
T1 sequence: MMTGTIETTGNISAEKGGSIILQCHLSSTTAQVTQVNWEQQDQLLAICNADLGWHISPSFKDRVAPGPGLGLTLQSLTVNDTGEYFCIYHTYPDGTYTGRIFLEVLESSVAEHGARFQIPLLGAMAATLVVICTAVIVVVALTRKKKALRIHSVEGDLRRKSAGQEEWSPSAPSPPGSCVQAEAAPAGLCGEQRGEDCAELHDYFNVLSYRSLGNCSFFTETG

T2: recombinant monomeric human TIGIT-His (human, UniProt Q495A1 22-141)
T2 construct: also called hTIGIT; not shown: His tag
T2 sequence: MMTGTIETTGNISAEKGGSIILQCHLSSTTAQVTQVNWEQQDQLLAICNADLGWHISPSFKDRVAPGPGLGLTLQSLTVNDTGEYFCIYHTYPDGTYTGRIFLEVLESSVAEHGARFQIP

T3: human PVRL4-His (human, UniProt Q96NY8 32-349)
T3 construct: also called Nectin-4; not shown: His tag
T3 sequence (looked up): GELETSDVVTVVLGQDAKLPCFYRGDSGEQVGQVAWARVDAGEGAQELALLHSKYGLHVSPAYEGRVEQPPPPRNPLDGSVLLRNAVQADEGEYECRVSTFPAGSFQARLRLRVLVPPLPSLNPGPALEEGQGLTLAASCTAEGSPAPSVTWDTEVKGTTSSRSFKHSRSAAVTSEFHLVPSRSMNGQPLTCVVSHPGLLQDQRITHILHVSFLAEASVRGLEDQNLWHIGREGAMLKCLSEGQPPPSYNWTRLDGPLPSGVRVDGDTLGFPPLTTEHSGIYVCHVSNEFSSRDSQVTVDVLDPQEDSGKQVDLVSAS

B1: MAB19-IgG4 (antibody, V domains shown)
VH: QVQLVQSGAEVKKPGASVKVSCKASGYTFTSHYMGWVRQAPGQGLEWMGVINPSMGATSYAQKFQGRVTMTRDTSTSTVYMELSSLRSEDTAVYYCARLHVSGSYYPAYLDYWGQGTMVTVSS
VL: EIVMTQSPATLSVSPGERATLSCRASQSVSSNLAWYQQKPGQAPRHLIYGASTRATGIPARFSGSGSGTEFTLTISSLQSEDFAVYYCQQYIVFPWTFGGGTKVEIKR
B2: MAB20-IgG4 (antibody, V domains shown)
VH: B1 VH with M48V, V50I
VL: B1 VL
B3: MAB21-IgG4 (antibody, V domains shown)
VH: B1 VH with V50I, A61T, Q65R
VL: B1 VL
B4: MAB3-IgG4 (antibody, V domains shown)
VH: QLQLQESGPGLVKPSETLSLTCTVSGGSISSTSHYWGWIRQPPGKGLEWIGSIYYSGSTFYNPSLKSRVTISVDTSKNQFSLKLSSVTAADTAVYYCARDANYYGSAWAFDPWGQGTLVTVSS
VL: EIVLTQSPATLSLSPGERATLSCRASQSVSSYLAWYQQKPGQAPRLLIYDASNRATGIPARFSGSGSGTDFTLTISSLEPEDFAVYYCQQHFNLPTFGGGTKVEIKR
B5: SEC1 (format not stated) (antibody, V domains shown)
VH: EVQLVESGGGLTQPGKSLKLSCEASGFTFSSFTMHWVRQSPGKGLEWVAFIRSGSGIVFYADAVRGRFTISRDNAKNLLFLQMNDLKSEDTAMYYCARRPLGHNTFDSWGQGTLVTVSS
VL: DIVMTQSPSSLAVSPGEKVTMTCKSSQSLYYSGVKENLLAWYQQKPGQSPKLLIYYASIRFTGVPDRFTGSGSGTDYTLTITSVQAEDMGQYFCQQGINNPLTFGDGTKLEIK
B6: MAB18-IgG4 (antibody, V domains shown)
VH: QVQLVQSGAEVKKPGASVKVSCKASGYTFPAYYMHWVRQAPGQGLEWMGIINPSLGLTSYARKFQGRVTMTRDTSTSTVYMELSSLRSEDTAVYYCARGGRTTWIGAFDIWGQGTMVTVSS
VL: EIVMTQSPATLSVSPGERATLSCRASQSVSSNLAWYQQKPGQAPRLLIYGASTRATGIPARFSGSGSGTEFTLTISSLQSEDFAVYYCQQYVVWPPLTFGGGTKVEIKR
B7: MAB13-IgG4 (antibody, V domains shown)
VH: B6 VH with P30G, A31N, R62Q
VL: B6 VL
B8: MAB16-IgG4 (antibody, V domains shown)
VH: B6 VH with P30R, A31E, L55I, F108L
VL: B6 VL
B9: MAB17-IgG4 (antibody, V domains shown)
VH: B6 VH with M34I, F108L
VL: B6 VL
B10: MAB15-IgG4 (antibody, V domains shown)
VH: B6 VH with P30R, A31E, L55I
VL: B6 VL
B11: MAB14-IgG4 (antibody, V domains shown)
VH: B6 VH with R62Q
VL: B6 VL

Target: T1, human TIGIT on the cell surface
Assay: cell-based or functional assay

| Binder | Average EC50, IL-2 production, human TIGIT Jurkat/anti-CD3 HT-1080 co-culture assay [nM] |
| --- | --- |
| B1 | 0.2 |
| B2 | 0.68 |
| B3 | 0.61 |
| B4 | 0.33 |
| B5 | 8.46 |
| B6 | 0.25 |
| B7 | 1.4 |
| B8 | 1.11 |
| B9 | 0.13 |
| B10 | 0.21 |
| B11 | 0.71 |

Target: T2, recombinant monomeric human TIGIT-His
Assay: BLI (ForteBio), IgG on AHQ sensor, 100 nM monomeric antigen, 1:1 model
Experimental: (§1) Quantitative binding of antibodies to recombinant monomeric human, mouse (SEQ ID NO: 3), cynomolgus monkey TIGIT was measured using biolayer interferometry (BLI) with a FORTEBIO®. […] FORTEBIO affinity measurements were performed by loading IgGs on-line onto AHQ sensors. Sensors were equilibrated off-line in assay buffer for 30 min and then monitored on-line for 60 seconds for baseline establishment. Sensors with loaded IgGs were exposed to a single concentration of antigen (100 nM) for 3 minutes. Afterwards they were transferred to assay buffer for 3 minutes for off-rate measurement. Kinetics were analyzed using the 1:1 binding model.

| Binder | Kd [nM] |
| --- | --- |
| B4 | 0.332 |
| B6 | 0.448 |
| B7 | 1.44 |
| B8 | 0.378 |
| B9 | 0.429 |
| B10 | 0.526 |
| B11 | 1.23 |

Target: T4, recombinant monomeric cynomolgus monkey TIGIT-His (cynomolgus monkey)
T4 construct: also called Cyno TIGIT His; cTIGIT; not shown: His tag
T4 sequence (chain, as listed by the source limits assumed): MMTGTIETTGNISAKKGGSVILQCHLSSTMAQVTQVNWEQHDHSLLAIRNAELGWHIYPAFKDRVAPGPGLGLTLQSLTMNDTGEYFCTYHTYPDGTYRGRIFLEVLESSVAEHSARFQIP
Assay: as above
Experimental: as §1

| Binder | Kd [nM] |
| --- | --- |
| B4 | 0.802 |
| B6 | 72 |
| B8 | 70.4 |
| B9 | 110 |
| B10 | 79.4 |

Target: T1, human TIGIT on the cell surface
Assay: flow cytometry, antibody titrated against labeled PVR-Fc binding to human TIGIT Jurkat cells
Experimental: (§2) Quantitative ligand blocking studies were conducted by using a cell surface TIGIT binding assay.

| Binder | IC50 [nM] |
| --- | --- |
| B1 | 6.4 |
| B2 | 2.3 |
| B3 | 1 |
| B4 | 1.6 |
| B6 | 1.8 |
| B7 | 2.1 |
| B8 | 2.1 |
| B9 | 2.6 |
| B10 | 2.2 |
| B11 | 2.6 |

Target: T3, human PVRL4-His
Assay: BLI, antibody on AHC sensor, human PVRL4-His in solution
Experimental: The BLI analysis was performed at 30° C. using 1× kinetics buffer as assay buffer. AHC sensors were first presoaked in assay buffer for greater than 5 minutes. Antibody (5 μg/mL) was captured on the sensor for 300 seconds. Sensors were then dipped in assay buffer for 120 seconds to establish a baseline before measuring binding to human PVRL4-His protein. Sensors were then dipped into human PVRL4-His (200 nM in assay buffer) for 200 seconds to measure association. Dissociation of PVRL4 was then measured by dipping sensors into assay buffer for 200 seconds. Results were analyzed using Octet® Data Analysis Software Version 8.2.0.7.

| Binder | binding result |
| --- | --- |
| B1 | no binding (tested: 200 nM) |
| B2 | no binding (tested: 200 nM) |
| B3 | no binding (tested: 200 nM) |
| B4 | no binding (tested: 200 nM) |
| B6 | no binding (tested: 200 nM) |
| B7 | no binding (tested: 200 nM) |
| B8 | no binding (tested: 200 nM) |
| B9 | no binding (tested: 200 nM) |
| B10 | no binding (tested: 200 nM) |
| B11 | no binding (tested: 200 nM) |

Target: T1, human TIGIT on the cell surface
Assay: flow cytometry, antibody titrated against labeled PVRL2-Fc binding to human TIGIT Jurkat cells
Experimental: as §2

| Binder | IC50 [nM] |
| --- | --- |
| B1 | 2 |
| B2 | 1.9 |
| B3 | 0.8 |
| B4 | 1.2 |
| B6 | 1.9 |
| B7 | 1.8 |
| B8 | 1.3 |
| B9 | 1.9 |
| B10 | 1.1 |
| B11 | 1.6 |

Target: T2, recombinant monomeric human TIGIT-His
Assay: MSD-SET solution equilibrium titration, monomeric antigen
Experimental: (§3) See Estep et al., supra, incorporated by reference in its entirety. Briefly, solution equilibrium titrations (SET) were performed in PBS+0.1% IgG-Free BSA (PBSF) with antigen (TIGIT monomer) held constant at 10-100 pM and incubated with 3- to 5-fold serial dilutions of Fab or mAbs starting at 10 pM-10 nM. Antibodies (20 nM in PBS) were coated onto standard bind MSD-ECL plates overnight at 4° C. or at room temperature for 30 min. Plates were then blocked by BSA for 30 min with shaking at 700 rpm, followed by three washes with wash buffer (PBSF+0.05% Tween 20). SET samples were applied and incubated on the plates for 150s with shaking at 700 rpm followed by one wash. Antigen captured on a plate was detected with 250 ng/mL sulfotag-labeled streptavidin in PBSF by incubation on the plate for 3 min. The plates were washed three times with wash buffer and then read on the MSD Sector Imager 2400 instrument using 1× Read Buffer T with surfactant. The percent free antigen was plotted as a function of titrated antibody in Prism and fit to a quadratic equation to extract the KD. To improve throughput, liquid handling robots were used throughout MSD-SET experiments, including SET sample preparation.

| Binder | Kd [nM] |
| --- | --- |
| B2 | 0.03 |
| B3 | 0.08 |
| B4 | 0.0081 |
| B7 | 0.4 |
| B8 | 0.07 |
| B9 | 0.041 |
| B10 | 0.21 |
| B11 | 0.38 |

Target: T4, recombinant monomeric cynomolgus monkey …
Assay: as above
Experimental: as §3

| Binder | Kd [nM] |
| --- | --- |
| B4 | 0.035 |

Target: T2, recombinant monomeric human TIGIT-His
Assay: BLI (Octet QKe), antibody on AHC sensor, several concentrations of human TIGIT-His, 1:1 global fit, average
Experimental: A strategy of capturing anti-TIGIT antibodies on sensors following association/dissociation of monomeric TIGIT proteins was used to avoid avidity effects in the assay. The BLI analysis was performed at 29° C. using 1× kinetics buffer (ForteBio) as assay buffer. Anti-human IgG Fc capture (AHC) biosensors (ForteBio) were first presoaked in assay buffer for over five minutes. Anti-TIGIT antibody (5 μg/mL) was captured on the sensor for 300 seconds. Sensors were then dipped in assay buffer for 120 seconds to establish a baseline before measuring binding to each TIGIT protein. […] Dissociation of TIGIT was measured by dipping the sensors into assay buffer for 600, 1200, or 1800 seconds, depending on the experiment (600 seconds was only used for mouse TIGIT-His). Agitation at all steps was 1000 rpm.
Kinetic parameters were generated with Octet® Data Analysis Software Version 8.2.0.7 using reference subtraction, dissociation based inter-step correction, 1-to-1 binding model, and global fit (Rₘₐₓ unlinked by sensor).

| Binder | Kd [nM] | koff [s⁻¹] | kon [M⁻¹ s⁻¹] |
| --- | --- | --- | --- |
| B2 | 0.46 | 0.00038 | 890000 |
| B3 | 0.36 | 0.0005 | 1.4e+06 |
| B6 | 0.81 | 0.00059 | 750000 |
| B8 | 1.1 | 0.00035 | 450000 |
| B10 | 0.58 | 0.00066 | 1.1e+06 |
